Assays:
[1] = molecular target: T1, VWF-A1 domain (Homo sapiens, UniProt P04275); assay: BLItz bio-layer interferometry, immobilized VWF-A1 domain; assay type: binding; conditions: scFv-A1 20, 40 and 100 µg ml^-1
T1 construct: coated with purified full length VWF or isolated A1 domain
Description: (§1) Bio-layer Interferometry was performed on a BIItz System (Pall Forte Bio, USA). Protein-A biosensors were hydrated for 30 minutes in PBS-Tween (0.05%) and loaded with VWF-A1 domain (130 µg ml^-1). Remaining binding sites were blocked by exposure to a polyclonal mouse IgG for 5 min. Sequential adhesion of scFv-A1 at 0, 20, 40 and 100 µg ml^-1 was monitored for 5 min per concentration. Real time visualisation of binding interactions between scFv A1 and full length VWF/A1 domain was performed using the BLItz Pro software. Traces were manually baseline aligned and corrected for control binding (0 µg ml^-1 scFv-A1).

[2] = molecular target: T2, full length VWF (Homo sapiens, UniProt P04275); assay: ELISA binding to immobilized full length VWF; conditions: scFv A1 5 µg ml^-1; ristocetin 0.75 mg ml^-1
T2 construct: coated with purified full length VWF or isolated A1 domain
Description: ELISA wells (Thermo Fisher Scientific) were coated with purified full length VWF or isolated A1 domain at 0.1, 1 and 10 µg ml^-1 in the presence of ristocetin (0.75 mg ml^1) and blocked with 2% BSA. Next, the coated wells were incubated with 5 µg ml^-1 of scFv A1 or sheep anti-VWF antibody followed by incubation with an HRP-conjugated secondary antibody (Anti-his HRP for scFv A1, Donkey anti-sheep HRP antibody for sheep anti-VWF antibody) (1:4,000). Readings were measured at 450 nm on a BMG Optima multi-well reader.

[3] = tested on: VWF-platelet interaction; assay: Platelet-VWF adhesion on collagen III in stenotic microfluidic channels (SRG versus constant shear); assay type: cell-based, human
Excerpt: (§2) In-house designed PDMS microfluidic chips (FIG. 1A) contained channels of 52 µm height with a footprint of 300 µm x 46 mm (used in FIG. 1) or 300 µm x 17 mm. Selected channels incorporated a semi-circular stenotic section of various lengths (600 µm, 1000 µm or 2000 µm diameter), creating 80% lumen reduction. Chips were manufactured as previously reported (Westein et al. Proceedings of the National Academy of Sciences of the United States of America. 2013 Jan 22;110(4):1357-62). The produced PDMS chips were sealed with cover slips by hydrophobic interaction and coated with collagen by perfusion of collagen solution followed by static incubation at RT for at least 1 hr. Channels were rinsed with PBS and blocked with 2% BSA. Wall shear rates of the input flow for these microchannels were approximated from volumetric flow rates by using the equation, γ = 6Q/wh2. Herein, γ is the wall shear rate (s^-1), Q the volumetric flow rate (mls^-1), w the channel with (cm) and h the channel height (cm).
Citrated whole blood was incubated with DiOC6 (0.5 µg ml^-1) (Sigma-Aldrich Co, St. Louis, MO, USA) and drawn through microfluidic channels by a programmable syringe pump (Legato 130, KD Scientific, USA). Time-lapse z-stack images of platelet deposition were captured in multiple track, resonant scanning mode, using a Nikon A1R confocal microscope system. Platelet deposition was recorded over time (2 frames per minute) for up to 20 minutes and quantified in ImageJ using a Z-projection of the acquired signal.
(§3) For experiments measuring rolling velocities, anti αllbβ3 antibody (abciximab; 20 µg ml^-1)-treated whole blood containing 0.5 µg ml^-1 DiOC6 was drawn over a collagen type III-coated surface. Where indicated, blood was incubated with 30 µM aspirin (Sigma Aldrich, USA) and 300 µM 2-MeSAMP (Sigma-Aldrich Co, St. Louis, MO, USA) prior to blood perfusion. 10 second video clips of rolling platelets were recorded in the green fluorescent channel using an Olympus IX81 microscope system. Platelet rolling velocities were calculated using Diatrack v3.04 large scale particle tracking software (Vallotton et al. Microsc Microanal. 2013 Apr;19(2):451-60).

[4] = molecular target: T3, VWF-full length (Homo sapiens, UniProt P04275); assay: BLItz bio-layer interferometry, immobilized full length VWF; conditions: BLItz binding assay
T3 construct: coated with purified full length VWF or isolated A1 domain
Description: as §1

[5] = tested on: VWF-GPIbα bond strength (platelets rolling on VWF-collagen III); assay: Platelet rolling velocity on collagen III bound VWF in stenotic or straight microfluidic channels; assay type: cell-based, human; conditions: scFv A1
Excerpt: as §2, with “Herein, γ is the wall shear rate (s^-1), Q the volumetric flow rate (mls^-1), w the channel with (cm) and h the channel height (cm).” left out
as §3, with “Where indicated, blood was incubated with 30 µM aspirin (Sigma Aldrich, USA) and 300 µM 2-MeSAMP (Sigma-Aldrich Co, St. Louis, MO, USA) prior to blood perfusion.” left out

- Binding to immobilized VWF-A1 domain [1]: did not observe any binding
- Binding to immobilized full length VWF [2]: did not bind
- Binding to immobilized VWF-full length [4]: did not observe any binding
B1: scFv A1: single chain antibody combining variable heavy chain of mAb CR1 with variable light chain of mAb CR2; VH SEQ ID NO: 11, VL SEQ ID NO: 10 (antibody, V domains shown)
VH: QVQLQQPGAELVRPGASVKLSCKASGYSFTNYWMSWVKQRPGQGLEWIGMIHPSDSDTRLNQKFKDKATLTVDKSSSTAYMQLSSPTSEDSAGLLLCKKFEGWLPVLLGPRHHSHSLLS
VL: DIELTQSPASLAVSLGQSYRASCKSVSTSGYSYMHWNQQKPGQPPRLLIYLVSNLESGVPARFSGSGSGTDFTLNIHPVEEEDAATYYCQHIRELTRSEGDQAEINR
modifications: scFv linker; Mouse
- Platelet adhesion ([3]; scFv A1 5 µg ml^-1, stenosis apex, control 3934±892, p=0.7932): 3805±783 platelets/mm^2
- Platelet-VWF adhesion ([3]; scFv A1 5 µg ml^-1, stenosis inlet, control 6187±1097, p=0.0013): 5158±1032 platelets/mm^2
- Platelet adhesion ([3]; scFv A1 5 µg ml^-1, stenosis outlet, control 5042±1167, p=0.07): 4475±1199 platelets/mm^2
- Platelet deposition ([3]; scFv A1 5 µg ml^-1, straight section, constant shear, control 2047±232, p=0.0195): 3096±690 platelets/mm^2
- Relative amount of VWF per platelet deposited on aggregates ([3]; scFv A1, areas of SRGs and constant shear): not reduced
- Effect on platelet rolling velocities ([5]; areas other than the stenosis apex): largely unaffected
- Platelet rolling velocity ([5]; stenosis apex, control 4.41±0.1, p=0.038): 4.6±0.1 µm s^-1
